Our source for the Kd and binding values is article PMC9170038.

One may read the Kd as a measure of binding affinity in units of concentration. A higher Kd goes with a looser complex.

Some results are limits rather than exact numbers.

Series [1] deals with Tetracycline aptamer, RNA-MaP condition construct (RNA, aptamer) GGAAAGGCGCUAAAACAUACCAGUUCGCUGGAGAGGUGAAGAAUACGACCACCUAGCGCCAAAGAAACAACAACAACAAC
Kind of series: 1M7 chemical mapping. Conditions: 80 mM KCl, 4 mM MgCl2; 100 mM Tris-HCl, pH 7.5, 37 °C.

In series [2] the test system is Tetracycline aptamer, Light-up construct (RNA, aptamer) GGGAACGUCUCCGAGUAGGAGACGAAGGGAGAGUGGCAGCUUACAACGCUAAAACAUACCUGCACCACCGACCUUGAAAACAAGGGUAACGAAUGUGGAGCAGGAGAGGUGAAGAAUACGACCACCUAGCGAAGUGGGCUGUUGCUUUUCCAAGCUUAUCGAGUAGAUAAGCAAAAAGAAACAACAACAACAAC
The experiment in a line: DMS chemical mapping. The conditions noted are these: 5 mM MgCl2, 1x PBS, pH 6.1, 24 °C.

The subject of series [3] is BH_E029 (RNA, aptamer) GGGAGAGUGGCAGCUUACAACGUAACGAUGCGGCCGCCACUGAUCCGACUGGUUAACAGAAAGUCCUGACCAGGUAACGAAUGGUCAGGACCGGGCAUUGUUACGAAGUGGGCUGUUGCUUUUCC
Kind of series: light-up fluorescence kinetics. Conditions: 5 mM MgCl2, 1x PBS, pH 6.1, with tryptophan (ON state).

The subject of series [4] is FMN aptamer, RNA-MaP condition construct (RNA, aptamer) GGAAAGGCGUGUAGGAUAUGCUUCGGCAGAAGGACACGCCAAAGAAACAACAACAACAAC
The experiment in a line: 1M7 chemical mapping. The conditions noted are these: 80 mM KCl, 4 mM MgCl2; 100 mM Tris-HCl, pH 7.5, 37 °C.

For series [5], the system named is FMN aptamer, Light-up construct (RNA, aptamer) GGGAACGUCUCCGAGUAGGAGACGAAGGGAGAGUGGCAGCUUACAAUUCCAGCCGACCACUGAAAUACUCUAGAGGAUAUGACAGACAAAGUCUGUCAGAAGGCUAGAGCAGUGGGUAACGAAUGCUGGAAAAGUGGGCUGUUGCUUUUCCAAGCUUAUCGAGUAGAUAAGCAAAAAGAAACAACAACAACAAC
The experiment in a line: DMS chemical mapping. Conditions: 5 mM MgCl2, 1x PBS, pH 6.1, 24 °C.

In series [6] the test system is BC_JL-sng2-3.09 (RNA, aptamer) GGGUAUGUCGCAGAAGUAGCUAUCGGAGGAUAUUCAUACCGGAAACGGACAUGAGGAUCACCCAUGUGGCGAAAGCCUUGGGAGAAGGCUGAUAGCUACAACUGCGACAUACCCAAAAAAAAAAAAAAAAAAAAAAAAA
Kind of series: flow cytometry of RNA beads with MS2 protein; DMS chemical mapping. The conditions noted are these: RNA immobilised on beads; reversible over 80 FMN buffer exchanges. (In general: In flow cytometry, cells or beads pass a laser one at a time.)

Series [7] addresses T1, MS2 coat protein, dlFG mutant (Escherichia phage MS2, UniProt P03612, del68-81insG). Kind of series: 4 mM Mg2+; no ligand; RNA-MaP array; 100 mM Tris-HCl pH 7.5, 80 mM KCl, 4 mM MgCl2, 0.1 mg/mL BSA, 1 mM DTT, 0.01 mg/mL yeast tRNA, 0.01% Tween-20; protein 1.5 nM to 3 uM; 37 C (Table S3). Conditions: chain copies: 2; label: tethered by stalled RNA polymerase.
The target in series [8] is T1, MS2 coat protein, dlFG mutant. Kind of series: 4 mM Mg2+; FMN 200 uM; RNA-MaP array; 100 mM Tris-HCl pH 7.5, 80 mM KCl, 4 mM MgCl2, 0.1 mg/mL BSA, 1 mM DTT, 0.01 mg/mL yeast tRNA, 0.01% Tween-20; protein 1.5 nM to 3 uM; 37 C (Table S3). The conditions noted are these: chain copies: 2; label: tethered by stalled RNA polymerase.
Series [9] shares this target. The experiment in a line: 4 mM Mg2+; L-tryptophan 2.4 mM; RNA-MaP array; 100 mM Tris-HCl pH 7.5, 80 mM KCl, 4 mM MgCl2, 0.1 mg/mL BSA, 1 mM DTT, 0.01 mg/mL yeast tRNA, 0.01% Tween-20; protein 1.5 nM to 3 uM; 37 C (Table S3). Conditions: chain copies: 2; label: tethered by stalled RNA polymerase.

With `CN(C)[C@@H]1C(=O)C(C(N)=O)=C(O)[C@@]2(O)C(=O)C3=C(O)c4c(O)cccc4[C@@](C)(O)[C@H]3C[C@@H]12`, the equilibrium dissociation constant (Kd) in [1] is recorded as 622.07 ± 132.12/-105.63 nM; in series [2], 57.50 ± 22.58/-15.88 nM.

On to `CN(C)c1ccc(C(=C2C=CC(=[N+](C)C)C=C2)c2ccccc2)cc1`, for which the binding result in [3] is listed as “yes”.

`Cc1cc2nc3c(=O)[nH]c(=O)nc-3n(C[C@H](O)[C@H](O)[C@H](O)COP(=O)(O)O)c2cc1C`: the values for the equilibrium dissociation constant (Kd) in [4] and in [5] were 1.71 ± 0.60/-0.44 μM and 1.57 ± 0.58/-0.41 μM, respectively. The binding entry in series [6] is “yes”.

B1: Eterna 7675419 (Same State - Tryptophan A) (ssRNA)
RNA: UUUAAACAUAGUGAUGUUAUGUAACAAUGACGAGGACCGGUACGGCCGCCACUCGAGAGAGAUGAUGGUAAAAUAAAUAAUUUUC
The molecule B1 registered an equilibrium dissociation constant (Kd) in series [7] of more than 3000 nM.

B2: Eterna 7752556 (Exclusion - Arginine B) (ssRNA)
RNA: UUAGUCUAGAGAAGGAGCGAGUGAUGUUCGCAUGCUAUGAUGAAUUCAUCAUAGUUUAAUCCUCAGGUAGGUCGCUCUAGACAUU
B2 displayed a Kd in series [7] of more than 3000 nM.

B3: Eterna 7671436 (Same State - Theophylline A) (ssRNA)
RNA: UGGACCUGACUCGAUAAGAGUCAAGGAGAUACCAGCCACGAAAGUGGCCCUUGGCAGCUCUGCCAGUGAUGUUGGUCAAGGUCCU
Consider B3, for which, in series [7], the Kd is more than 3000 nM.

B4: Eterna 1165 (Exclusion - Theophylline B) (ssRNA)
RNA: CCAAGCGUCAGCGAUACCAGAAUUCUAGUGAUGUUAGGUUCUGUCAUUGUACUAGCAGUGUUCCCUUGGCAGCGCGUGAUAGGCA
The molecule B4 came in with a Kd in series [7] of more than 3000 nM.

B5: Eterna 6391704 (Inverted Exclusion NG 3) (ssRNA)
RNA: AGCUGGUGACAGCAUCCAUCUUAACAUGAGGAUCACCCAUGUAGAAGGCUGUACGGUUACCGUACAGAGGAUAUACAUAGAUGG
The molecule B5 returned a dissociation constant Kd in [8] of 9.28 nM.

B6: Eterna 7726098 (Exclusion - FMN A) (ssRNA)
RNA: AAGUGAUGUUGUAGUGAUGUUGUGAUGUUGCAGGAUAUAUAGUGAUGUAGAAGGGUAAGUACUUAUUUUUUUUUUGAGUUAUGUU
On to B6, for which the Kd in series [7] was more than 3000 nM.

B7: Eterna 7681146 (Same State - Arginine A) (ssRNA)
RNA: ACUGGGUUGACGAAAGUCAACAAAAGAGAAGGAGCGCACGAAAGUGCAGGUAGGUCGCUCAUCCAGUGAUGUUGGAUCAUCCAGA
In series [7], B7 showed a Kd of more than 3000 nM.

B8: Eterna 6449046 (Small Loop Same State NG 1) (ssRNA)
RNA: AAUAAACACACAGGAUAUAGCAUCGUCGUUGCGAACUUAGCGACGACGAUGCUAGAAGGGUGAACACAUGAGGAUCACCCAUGU
As to B8, in series [7], binding was characterised by a dissociation constant (Kd) of 195 nM.

B9: Eterna 7759081 (Exclusion - Theophylline A) (ssRNA)
RNA: AACUGUCAAGGACAACAUUACUGAGGUGAUACCAGCAUCGAAAGAUGCCCUUGGCAGCGCCAACUUGCAGUGAUGUUGCAAGUAA
The molecule B9 showed a dissociation constant (Kd) in series [7] of more than 3000 nM.

B10: Eterna 6402672 (Exclusion NG 2) (ssRNA)
RNA: UGGCCCGCCGGAGGAUAUCUACUCUGUGGUGCACUGCGUUUGCAAUACAUGAGGAUCACCCAUGUAGAGAAGGCCGAGGGCACA
As to B10, the Kd in series [7] turned out to be 269 nM.

B11: Eterna 7616241 (Exclusion - Tryptophan A) (ssRNA)
RNA: AAUGUAUGCCACAUGAGGAUCACCCAUGUGCGAGGACCGGUACGGCCGCCACUCGGUCGGUGGUUAAUGAAGAUAUACAAUAAUG
In [9], B11 displayed a Kd of 15.5 nM. In other words, the double-digit nanomolar range.

B12: Eterna 1206 (Exclusion - Tryptophan A) (ssRNA)
RNA: CUAUAGACCCUUCGGAUAGUGAUGUUGUCACGAGGACCGGUACGGCCGCCACUCGCUGCCACCAUACCGCUUCACGGAACGAGCA
With B12, the Kd in [7] is more than 3000 nM.

B13: Eterna 6121097 (Same State NG 1) (ssRNA)
RNA: CGCUGUCACGCAGGAUAUGCAUUGGAUUACAAUGCAGAAGGGCGAUUACAUGAGGAUCACCCAUGUGUCGACAGUGAAGAAGAG
B13 came in with a Kd in series [7] of 532 nM.
